For five molecules, EC50 and fold preference of HD49 vs. HD21 results are on record in US20220332808A1, “HUMAN-DERIVED ANTI-HUNTINGTIN (HTT) ANTIBODIES AND USES THEREOF” (published 2022).

Where “and” joins values, the source holds several entries; their conditions need not be identical. Identical values can stand only once. Where no end group is shown, it is not given here.

For assay [1], the target named is GST-HttExon1Q49 (human) (UniProt P42858). In words: direct ELISA, coated at 5 µg/ml. In general terms: In an ELISA, binding on a coated surface is turned into a signal by an enzyme label.
For assay [2], the target named is HD49: huntingtin Exon1 protein with 49 polyQ repeats, GST tag cleaved off, aggregation reaction (human, UniProt P42858). As to the kind of experiment: direct ELISA, coated at 5 µg/ml. As to the method:
(§1) To determine the half maximal effective concentration (EC₅₀) of recombinant human-derived HTT antibody […] to soluble and aggregated huntingtin Exon1 proteins with 21 or 49 polyQ repeats direct ELISA was performed. In brief, 96 well microplates (Corning) were coated with either GST-HD21, GST-HD49 or aggregated HD21 or HD49 at a concentration of 5 μg/ml in coating buffer (15 mM Na2CO3, 35 mM NaHCO₃, pH 9.42). Nonspecific binding sites were blocked for 1 h at RT with PBS/0.1% Tween®-20 containing 2% BSA (Sigma-Aldrich, Buchs, Switzerland). Primary antibodies were diluted to the indicated concentrations and incubated 1 h at RT. Binding was determined using either a donkey anti-human IgG Fcγ-specific antibody conjugated with HRP or a goat anti-mouse IgG (H+L)-specific antibody conjugated with HRP, followed by measurement of HRP activity in a standard colorimetric assay. Subsequently, EC₅₀ values were estimated by a non-linear regression using GraphPad Prism software (San Diego, USA).
(§2) To determine the half maximal effective concentration (EC₅₀) of recombinant human-derived HTT antibodies NI-302.35C1 and NI-302.72F10 to soluble and aggregated HTT Exon1 proteins with 21 or 49 polyQ repeats direct ELISA and EC50 determination was performed as described in Example 6, supra.
(§3) To determine the half maximal effective concentration (EC₅₀) of recombinant human-derived HTT antibody NI-302.7D8 to soluble and aggregated HTT Exon1 proteins with 21 or 49 polyQ repeats direct ELISA and EC50 determination was performed as described in Example 6, supra.

Assay [3] concerns the target T1, BSA-coupled polyP repeat peptide of Htt Exon1 (human, also: coupled to BSA).
T1 peptide: PPPPPPPPPPP
As to the kind of experiment: direct ELISA on BSA-coupled Htt Exon1 peptides. As to the method:
(§4) To determine the half maximal effective concentration (EC₅₀) of recombinant human-derived HTT antibody NI-302.33C11 to BSA-coupled peptide fragments of the huntingtin Exon 1 direct ELISA with BSA-coupled Htt Exon1 domain peptides was performed.
(§5) In brief, 96 well microplates (Corning) were coated with BSA-coupled synthetic peptides (Schafer-N, Denmark) of the N-terminal amino acid 1-19 ([…], SEQ ID No.: 93), the P-rich domain sequence ([…], SEQ ID No.: 94), the polyP repeat sequence ([…], SEQ ID No.: 95) or the 14 C-terminal amino acids ([…], SEQ ID No.: 96) or with the full lengths GST-HD49 Exon 1 protein at […] in coating buffer (15 mM Na2CO3, 35 mM NaHCO₃, pH 9.42). Non-specific binding sites were blocked for 1 h at RT with PBS/0.1% Tween®-20 containing 2% BSA (Sigma-Aldrich, Buchs, Switzerland). Primary antibodies were diluted to the indicated concentrations and incubated 1 h at RT. Binding was determined using donkey anti-human IgG Fcγ-specific antibody conjugated with HRP, followed by measurement of HRP activity in a standard colorimetric assay and the EC₅₀ values were estimated by a non-linear regression using GraphPad Prism software (San Diego, USA). […]

Assay [4] deals with GST-HttExon1Q21 (human) (UniProt P42858). In words: direct ELISA, coated at 5 µg/ml.
Assay [5] has as its target GST-HttExon1Q49 (human) (UniProt P42858). As to the kind of experiment: direct ELISA.
The target in assay [6] is HD21: huntingtin Exon1 protein with 21 polyQ repeats, GST tag cleaved off, aggregation reaction (human, UniProt P42858). In words: direct ELISA, coated at 5 µg/ml. As to the method: as §1, §2, §3
Assay [7] deals with T2, C-terminal peptide of Htt Exon1 coated directly to the plate (not coupled to BSA) (human).
T2 peptide: PPGPAVAEEPLHRP
As to the kind of experiment: direct ELISA, peptide coated directly.

The target in assay [8] is T3, BSA-coupled C-terminal peptide of Htt Exon1 (the 14 C-terminal amino acids) (human, also: coupled to BSA).
T3 peptide: PPGPAVAEEPLHRP
As to the kind of experiment: direct ELISA on BSA-coupled Htt Exon1 peptides. As to the method: as §4, §5

For assay [9], the target named is all four species: aggregated HD49, aggregated HD21, soluble GST-HD49 and GST-HD21 Htt Exon 1 proteins. As to the kind of experiment: direct ELISA, coated at 5 µg/ml.

Sequence of GST-HttExon1Q49 (human) (P42858 1-88, change not shown): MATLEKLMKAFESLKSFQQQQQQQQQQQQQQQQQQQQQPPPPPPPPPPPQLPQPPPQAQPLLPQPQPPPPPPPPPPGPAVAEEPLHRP
Sequence of GST-HttExon1Q21 (human) (P42858 1-88, change not shown): as above

B1: NI-302.7D8 (antibody, V domains shown)
VH: QVQLVQSGSELKKPGASVKVSCKASGYNFNNYAINWLRQAPGQGLEWMGWINTITGHPTYAQGFKGRFVFSLDTSVSTAYLQISSLKPEDTAVYYCARTYSNYGEFDYWGQGTLVTVSS
VL: QSALTQPASVSGSRGQSITISCTGTSSDVGSYNLVSWYQQYPGKAPKLIIHEGSERPSGVSNRFSGSKSGNTASLTISGLQAEDEADYYCCSYAGTTTFVLFGGGTKLTVL
Consider B1, for which the EC50 (in general, the concentration that produces a half-maximal response) came out at 6 nM in assay [1] and 17 nM in [2].

B2: NI-302.33C11 (antibody, V domains shown)
VH: EVQLVESGGGVVQPGNSLRLSCAASGFRFSDFGMHWVRQAPGKGLEWLALIWYDGGYKYYADSVKGRFTISRDNSKNTMFLQMNSLRAEDTAVYYCATHLEYCSRTTCYLGHWGQGTLVTVSS
VL: DIQLTQSPSFLSASVGDTVTFTCRASQGISDYLAWFQQKPGIAPKLLIYAASTLQTGVPSRFSGSGSGTEFTLTIRSLQSEDFGTYYCQQLKTYPYTFGQGTKVEIK
As to B2, the EC50 in assay [3] is 0.03 nM; in [1], 0.1 nM; in assay [4] it was 0.1 nM; in assay [5], 0.03 nM; in [2], roughly 0.1 nM; in [6], roughly 0.1 nM.

B3: NI-302.35C1 (antibody, V domains shown)
VH: EVQLVESGGNLVQPGGSLRLSCTASGFTFSITALSWVRQAPEKGPQWVSAITGNAYGTYYADSVKGRFTISRDNAKNTLYLQMNGLRAEDTAIYYCVKGIASDSSGYSAFWGPGTLVTVSS
VL: EIVLTQSPATLSLSPGERATLSCRASQSVDNQFAWYQQKPGQAPRLLIYDASRRAPGIPDRFSGSGSGTDFTLTISSLEPEDFAIYYCQHRYTWLYTFGQGTRLEIK
On to B3, for which the EC50 was greater than 100 nM in assay [7], roughly 0.7 nM in [8], 3.2 nM in assay [5] and roughly 2.7 nM in assay [2].

B4: NI-302.63F3 (antibody, V domains shown)
VH: QVQLVQSGSAFKKPGTSVKVSCKASGYTFETRSMNWVRQAPGQGLEYMGWINTNTGNRTYVQAFRGRFVFSLDTSVSTAYLQISNLKTEDTAVYYCARGAGGGYWFDSWGQGTLVTVSS
VL: DIQMTQSPDSLAVSLGERATINCKSNQSLFYSSNNNNYLAWYQHKSGQPPKLLVYWGSTRESGVPDRFSGSGSGTDFTLTISSLQAEDVAIYYCHQYYHNPYTFGQGTKLEIK
In [9], B4 yielded an EC50 of 0.2 to 0.4 nM.

B5: NI-302.15F9 (antibody, V domains shown)
VH: EVQLVESGGGLVTPGGSLRLSCEASGFLFKNSSMNWVRQTPGKGLEWVSSIDTSATNYKYYADSVKGRFTISRDDATNSLYLQMNSLRADDTATYYCARGYYTPRDFDYWGQGTLVTVSS
VL: DVVMTQSPQTLSVSLGQAASISCRSSQSLLYRDNNTYLNWFHQRPGQSPRRLIYRASDRDSGVPDRFSGGGSGTDFTLKISGVEAEDVGTYYCMQGTHWPRTFGQGTKVEIK
With B5, in assay [9], the EC50 is 5 nM and 35 nM; the fold preference of HD49 vs. HD21 was found to be 5 fold.
